The values below are quoted from earlier work in PMC3416887.

For the data set, the target named is FibP (Homo sapiens) (UniProt P02679).

Turning to thrombin (from UniProt P00734), the Kd is 0.63 µM.

A word on the Kd: it is the equilibrium constant for the complex coming apart.
